Test results taken from paper PMC9377591.

How the values were obtained:
[1] = target: V5-tagged Steppke (Step-V5-His) (Drosophila); assay: co-IP; FLAG-tagged Jub constructs co-expressed with a V5-tagged partner in Drosophila S2 cells; lysis and washes in RIPA buffer (140 mM NaCl, 10 mM Tris-HCl pH 8.0, 1 mM EDTA, 1.0% Triton X-100, 0.1% SDS, 0.1% sodium deoxycholate); precipitated with anti-V5 agarose beads, blotted with anti-FLAG; band intensity normalised to full length Jub
[2] = target: N2 domain of α-catenin, tagged with V5 (Drosophila) (UniProt P35220); assay: as above
UniProt P35220, sequence (P35220 whole entry, the tested form may be a part): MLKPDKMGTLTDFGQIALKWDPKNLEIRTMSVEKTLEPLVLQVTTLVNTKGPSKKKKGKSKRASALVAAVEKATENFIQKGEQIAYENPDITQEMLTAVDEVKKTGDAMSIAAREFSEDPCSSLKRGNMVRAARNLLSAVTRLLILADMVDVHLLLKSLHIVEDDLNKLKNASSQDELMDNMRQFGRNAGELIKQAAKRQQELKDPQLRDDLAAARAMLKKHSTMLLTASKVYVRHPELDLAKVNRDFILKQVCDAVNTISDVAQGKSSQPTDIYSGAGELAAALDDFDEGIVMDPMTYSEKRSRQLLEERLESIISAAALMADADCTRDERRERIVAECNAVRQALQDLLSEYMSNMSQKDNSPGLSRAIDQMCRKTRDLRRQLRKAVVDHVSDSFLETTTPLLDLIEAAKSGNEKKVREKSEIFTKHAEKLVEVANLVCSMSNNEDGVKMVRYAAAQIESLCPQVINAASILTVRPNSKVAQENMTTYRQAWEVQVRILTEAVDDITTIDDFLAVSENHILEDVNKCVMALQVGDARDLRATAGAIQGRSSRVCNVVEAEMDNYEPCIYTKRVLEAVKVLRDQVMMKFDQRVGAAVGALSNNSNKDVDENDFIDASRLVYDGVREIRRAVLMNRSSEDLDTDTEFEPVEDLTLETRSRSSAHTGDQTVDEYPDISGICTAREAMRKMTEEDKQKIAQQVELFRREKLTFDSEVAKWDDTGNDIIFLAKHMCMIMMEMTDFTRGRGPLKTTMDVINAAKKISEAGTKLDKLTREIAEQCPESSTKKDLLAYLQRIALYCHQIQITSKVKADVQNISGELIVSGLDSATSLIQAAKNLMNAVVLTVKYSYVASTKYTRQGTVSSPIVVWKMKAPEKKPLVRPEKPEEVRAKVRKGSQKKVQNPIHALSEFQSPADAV

Substance	co-precipitation relative to full length Jub (% of full length) [1]	co-immunoprecipitation relative to full length Jub (% of full length) [2]
Jub preLIM+LIM1 (1-559 and 693-718), FLAG-tagged (from UniProt Q9VY77 1-559; Q9VY77 693-718) (domain or fragment)	30	
Jub preLIM+LIM12 (1-623 and 693-718), FLAG-tagged (from UniProt Q9VY77 1-623; Q9VY77 693-718) (domain or fragment)	> 64	170
Jub preLIM+LIM23 (1-505, 571-718), FLAG-tagged (from UniProt Q9VY77 1-505; Q9VY77 571-718) (domain or fragment)	> 64	780

Continued, values first:

co-precipitation relative to full length Jub (% of full length) [1]	co-immunoprecipitation relative to full length Jub (% of full length) [2]	Substance
> 64		Jub preLIM+LIM2 (1-505, 571-623, and 693-718), FLAG-tagged (from UniProt Q9VY77 1-505; Q9VY77 571-623; Q9VY77 693-718) (domain or fragment)
30		Jub preLIM+LIM3 (1-505 and 631-718), FLAG-tagged (from UniProt Q9VY77 1-505; Q9VY77 631-718) (domain or fragment)
> 64	50	Jub preLIM+LIM13 (1-570 and 631-718), FLAG-tagged (from UniProt Q9VY77 1-570; Q9VY77 631-718) (domain or fragment)
	24	Jub-preLIM (1-505), FLAG-tagged (from UniProt Q9VY77 1-505) (domain or fragment)
